Laboratory results as given in publication PMC3388087 (PLoS ONE, 2012).

Experiments:
[1] = target: bat star (Patiria miniata) DGCR8 heme-binding domain, HBD-His6 (Patiria miniata (bat star)); test: SEC; size exclusion chromatography, last step of the purification; SEC buffer 400 mM NaCl, 20 mM Tris pH 8.0, 1 mM DTT; elution volumes compared (bat star HBD 13.8 mL; human HBD dimer; human NC9 monomer 2.6 mL later)
[2] = target: the molecule itself; test: as above

stoichiometry N [1] | Molecule | stoichiometry N [2]
2 | bat star (Patiria miniata) DGCR8 heme-binding domain, HBD-His6 (domain or fragment) | 
 | human DGCR8 heme-binding domain, HBD-His6 (domain or fragment, UniProt Q8WYQ5 276-498, looked up, Dimer of 54 kDa; also called human HBD; human HBD-His6; not shown: His6, C-terminal, kept) DGETSVQPMMTKIKTVLKSRGRPPTEPLPDGWIMTFHNSGVPVYLHRESRVVTWSRPYFLGTGSIRKHDPPLSSIPCLHYKKMKDNEEREQSSDLTPSGDVSPVKPLSRSAELEFPLDEPDSMGADPGPPDEKDPLGAEAAPGALGQVKAKVEVCKDESVDLEEFRSYLEKRFDFEQVTVKKFRTWAERRQFNREMKRKQAESERPILPANQKLITLSVQDAP | 2
